The labels stand for the following.
T1: IL-18Rα/β heterodimer (Fc fused human IL-18Rα mixed and pre-incubated with Fc fused human IL-18Rβ) (human, UniProt Q13478 19-329; O95256 20-356, limits assumed)
T1 construct: 6 µg/mL of each receptor mixed and pre-incubated 30 min before capture on anti-human IgG; also called alpha/beta heterodimer IL-18 receptor; not shown: Fc part
T1 sequence (looked up) 1: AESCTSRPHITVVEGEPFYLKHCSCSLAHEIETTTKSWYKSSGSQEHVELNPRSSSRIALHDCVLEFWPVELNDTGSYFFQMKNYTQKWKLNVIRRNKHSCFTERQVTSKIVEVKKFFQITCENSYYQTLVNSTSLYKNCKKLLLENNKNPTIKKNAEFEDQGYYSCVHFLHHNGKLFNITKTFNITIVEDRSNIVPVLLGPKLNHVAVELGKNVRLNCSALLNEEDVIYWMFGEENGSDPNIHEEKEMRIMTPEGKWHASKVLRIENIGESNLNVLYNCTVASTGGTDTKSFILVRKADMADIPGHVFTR
T1 sequence (looked up) 2: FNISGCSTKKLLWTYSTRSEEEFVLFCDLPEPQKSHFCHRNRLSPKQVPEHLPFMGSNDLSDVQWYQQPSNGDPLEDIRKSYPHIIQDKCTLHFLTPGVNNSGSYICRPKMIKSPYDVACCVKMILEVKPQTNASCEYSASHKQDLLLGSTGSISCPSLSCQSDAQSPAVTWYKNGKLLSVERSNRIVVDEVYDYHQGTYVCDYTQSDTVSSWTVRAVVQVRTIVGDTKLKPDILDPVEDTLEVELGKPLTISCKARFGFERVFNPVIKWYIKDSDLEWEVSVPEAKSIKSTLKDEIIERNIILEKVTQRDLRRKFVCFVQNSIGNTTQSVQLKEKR

T2: Fc fused human IL-18Rα (human, UniProt Q13478 19-329, limits assumed)
T2 construct: also called IL-18Rα monomer; IL-18 receptor alpha; not shown: Fc part
T2 sequence (looked up): T1 sequence (looked up) 1

T3: Fc fused human IL-18BP isoform a (IL-18BPa) (human, UniProt O95998 31-194)
T3 construct: also called IL-18BP monomer; not shown: Fc part
T3 sequence (looked up): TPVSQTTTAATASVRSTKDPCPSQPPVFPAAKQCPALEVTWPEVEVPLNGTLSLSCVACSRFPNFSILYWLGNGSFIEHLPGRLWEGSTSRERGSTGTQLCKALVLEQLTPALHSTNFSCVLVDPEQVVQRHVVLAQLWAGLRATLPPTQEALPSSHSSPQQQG

B1: Modified IL-18 polypeptide of SEQ ID NO: 3 (Y01G, F02A, E06K, M51G, K53A, D54A, S55A, T63A) (ligand)
chain: GAGKLKSKLSVIRNLNDQVLFIDQGNRPLFEDMTDSDCRDNAPRTIFIISGYAAAQPRGMAVAISVKCEKISTLSCENKIISFKEMNPPDNIKDTKSDIIFFQRSVPGHDNKMQFESSSYEGYFLACEKERDLFKLILKKEDELGDRSIMFTVQNED
B2: Modified IL-18 polypeptide of SEQ ID NO: 23 (K53A, T63A, C38S, C68S, C76S, C127S, K70C) (ligand)
chain: YFGKLESKLSVIRNLNDQVLFIDQGNRPLFEDMTDSDSRDNAPRTIFIISMYADSQPRGMAVAISVKSECISTLSSENKIISFKEMNPPDNIKDTKSDIIFFQRSVPGHDNKMQFESSSYEGYFLASEKERDLFKLILKKEDELGDRSIMFTVQNED
B3: Modified IL-18 polypeptide of SEQ ID NO: 70 (E6K, K53A, C38S, C76S, C127S) (ligand)
chain: B2 chain with E6K, A63T, S68C, C70K
B4: Modified IL-18 polypeptide of SEQ ID NO: 15 (C38S, C68S, C76S, C127S) (ligand)
chain: B2 chain with A53K, A63T, C70K
B5: Modified IL-18 polypeptide of SEQ ID NO: 13 (E06K, K53A, S55A, D54A) (ligand)
chain: B1 chain with G1Y, A2F, G51M, A63T
B6: Modified IL-18 polypeptide of SEQ ID NO: 17 (E06K, K53A, S55A, C38S, C68S, C76S, C127S, K70C) (ligand)
chain: B2 chain with E6K, S55A, A63T
B7: Modified IL-18 polypeptide of SEQ ID NO: 71 with a 30 kDa PEG attached at residue C68 (E6K, C38S, K53A, C68-30kDPEG) (ligand)
chain: B2 chain with E6K, A63T, S68C, C70K, S76C, S127C
modifications: 30 kDa PEG on Cys 68 (30 kDa DBCO-polyethylene glycol clicked to a bromoacetamido-PEG5-azide linker on the cysteine)
notes: also called 71 + PEG
B8: Modified IL-18 polypeptide of SEQ ID NO: 12 (E06K, K53A, S55A, F02A) (ligand)
chain: B1 chain with G1Y, G51M, A54D, A63T
B9: Modified IL-18 polypeptide of SEQ ID NO: 71 (E6K, C38S, K53A) (ligand)
chain: B2 chain with E6K, A63T, S68C, C70K, S76C, S127C
B10: Modified IL-18 polypeptide of SEQ ID NO: 16 (C38S, C68S, C76S, C127S, K70C) (ligand)
chain: B2 chain with A53K, A63T
B11: Modified IL-18 polypeptide of SEQ ID NO: 18 (E06K, K53A, T63A) (ligand)
chain: B1 chain with G1Y, A2F, G51M, A54D, A55S
B12: Modified IL-18 polypeptide of SEQ ID NO: 10 (E06K, K53A, S55A, T63A) (ligand)
chain: B1 chain with G1Y, A2F, G51M, A54D
B13: Modified IL-18 polypeptide of SEQ ID NO: 22 (E06K, K53A, C38S, C68S, C76S, C127S, K70C) (ligand)
chain: B2 chain with E6K, A63T
B14: Modified IL-18 polypeptide of SEQ ID NO: 14 (E06K, K53A, S55A, M51G) (ligand)
chain: B1 chain with G1Y, A2F, A54D, A63T

Substitutions are numbered along the chain they refer to. Names may count otherwise. A value given as a limit tells only on which side of the number the result lay.

The first assay concerns the target T1, IL-18Rα/β heterodimer (Fc fused human …). Briefly: SPR, Fc-IL-18Rα/Fc-IL-18Rβ mix captured, heterogeneous ligand model. Here is the method: (§1) The interaction of the wild type and of modified IL-18 polypeptides with human IL-18 receptor subunits were measured with Surface Plasmon Resonance (SPR) technology. Anti-human IgG antibodies were bound by amine coupling onto a CM5 chip to capture 6 μg/mL of Fc fused human IL-18Rα, 6 μg/mL of Fc fused human IL-18Rβ, or 2 μg/mL of Fc fused human IL-18BP isoform a (IL-18BPa) for 30 min before capture. In other settings, 6 μg/mL of alpha and beta IL-18 receptors were mixed and pre-incubated for 30 min before capture of the alpha/beta heterodimer IL-18 receptor.
(§2) The kinetic binding of the IL-18 analytes were measured with a Biacore 8K instrument in two-fold serial dilutions starting at 1 μM down to 0.98 nM. Regeneration of the surface back to amine coupled anti IgG antibody was done after every concentration of analyte. To measure the protein association to the receptors, the samples were injected with a flow rate of 50 μL/min for 60 s, followed by 300 s buffer only to detect the dissociation. The used running buffer was 1×PBS with 0.05% Tween20. The relative response units (RU, Y-axis) are plotted against time (s, X-axis) and analyzed in a kinetic 1:1 binding model for the monomer receptor binding and for the binding to the IL-18BP. A kinetic heterogenous ligand fit model was applied for the alpha/beta heterodimer binding.
Modified IL-18 polypeptides bearing sequence modifications E06K, K53A, S55A, and T63A maintained binding affinity to IL-18Rα/β heterodimer.
On the technique in general: Surface plasmon resonance follows binding to a sensor surface in real time, without labels.
The term Kd denotes the concentration at which binding is half-saturated. In turn, B1 had a Kd greater than 1000 nM.

In turn, B2 came in with a Kd greater than 1000 nM.

As usually defined, the koff is the first-order rate constant of dissociation. Broadly, the kon is the rate constant with which the complex forms. Low readings indicate slow association, high ones fast association. Consider B3, for which the affinity, expressed as Kd, was 13.2 nM; the koff came out at 0.0006 s⁻¹; the kon was 43600 M⁻¹ s⁻¹.

B4 showed a dissociation constant Kd of 315 nM, a koff of 0.022 s⁻¹ and a kon of 69800 M⁻¹ s⁻¹.

In the case of B5, the Kd was greater than 1000 nM.

Molecule B6 showed a Kd greater than 1000 nM.

Take B7: binding was put at a Kd of 23.9 nM, the dissociation rate constant (koff) amounted to 0.0008 s⁻¹ and the on-rate constant (kon) is 32200 M⁻¹ s⁻¹.

For the molecule B8, the Kd is greater than 1000 nM.

B9 yielded a Kd of 2.92 nM, a koff of 0.0008 s⁻¹ and a kon of 279000 M⁻¹ s⁻¹.

B10 showed a Kd of 200 nM, a koff of 0.0317 s⁻¹ and a kon of 159000 M⁻¹ s⁻¹.

As for B11, binding was put at a Kd of 7.01 nM, the off-rate (koff) was found to be 0.000955 s⁻¹ and the kon came out at 136000 M⁻¹ s⁻¹.

Turning to B12, the Kd came to 132 nM, the koff amounted to 0.054 s⁻¹ and the kon was found to be 409000 M⁻¹ s⁻¹.

Turning to B13, the Kd is 48.2 nM, the dissociation rate constant (koff) worked out at 0.000761 s⁻¹ and the kon came to 15800 M⁻¹ s⁻¹.

A further assay addresses T2, Fc fused human IL-18Rα. The assay is described as follows: SPR, Fc-IL-18Rα captured, 1:1 model. Here is the method: as §1, §2
Modified IL-18 polypeptides having sequence modifications E06K, K53A, S55A, and T63A maintained binding affinity to IL-18Rα.
Molecule B1 displayed an equilibrium dissociation constant (Kd) greater than 1000 nM.

As to B2, the Kd was greater than 1000 nM.

B14 came in with a Kd greater than 1000 nM.

As to B3, the affinity, expressed as Kd, was 379 nM; the koff turned out to be 0.0369 s⁻¹; the kon amounted to 92600 M⁻¹ s⁻¹.

In turn, B4 showed a Kd of 231 nM, a koff of 0.0179 s⁻¹ and a kon of 77500 M⁻¹ s⁻¹.

Take B5: the Kd was greater than 1000 nM.

B6 displayed a dissociation constant Kd greater than 1000 nM.

B7 gave a Kd of 682 nM, a koff of 0.0217 s⁻¹ and a kon of 31800 M⁻¹ s⁻¹.

In turn, B8 gave a Kd greater than 1000 nM.

In turn, B9 gave a Kd of 72.4 nM, a koff of 0.0151 s⁻¹ and a kon of 208000 M⁻¹ s⁻¹.

B10 displayed a Kd of 304 nM, a koff of 0.0158 s⁻¹ and a kon of 51900 M⁻¹ s⁻¹.

The molecule B11 returned a Kd of 38 nM, a koff of 0.00573 s⁻¹ and a kon of 151000 M⁻¹ s⁻¹.

For the molecule B12, the Kd is 147 nM, the koff was found to be 0.0496 s⁻¹ and the kon is 337000 M⁻¹ s⁻¹.

B13 registered a Kd of 2210 nM, a koff of 0.0199 s⁻¹ and a kon of 8970 M⁻¹ s⁻¹.

The target in a further assay is T3, Fc fused human IL-18BP isoform a …. The assay is described as follows: SPR, Fc-IL-18BPa captured, 1:1 model. Here is the method: as §1, §2
Modified IL-18 polypeptides bearing sequence modifications K53A, S55A, E06K, C38S, C68S, C76S, C127S, and/or K70C maintained binding affinity to IL-18BP.
Take B2: the Kd turned out to be 52.8 nM, the koff came out at 0.00118 s⁻¹ and the kon came out at 22400 M⁻¹ s⁻¹.

B14 returned a Kd greater than 1000 nM.

In the case of B3, binding was put at a Kd of 29.1 nM, the off-rate constant (koff) amounted to 0.0037 s⁻¹ and the on-rate constant (kon) is 128000 M⁻¹ s⁻¹.

Consider B4, for which the Kd came out at 0.199 nM, the koff amounted to 0.000253 s⁻¹ and the kon turned out to be 1.27e+06 M⁻¹ s⁻¹.

Consider B5, for which the Kd was greater than 1000 nM.

Consider B7, for which the Kd stood at 24.5 nM, the koff is 0.0039 s⁻¹ and the kon is 158000 M⁻¹ s⁻¹.

The molecule B8 yielded a Kd greater than 1000 nM.

With B9, the Kd came out at 2.72 nM, the koff stood at 0.0031 s⁻¹ and the kon came out at 1.14e+06 M⁻¹ s⁻¹.

The molecule B10 displayed a dissociation constant Kd of 0.374 nM, a koff of 0.000265 s⁻¹ and a kon of 708000 M⁻¹ s⁻¹.

B11 displayed a Kd of 10.4 nM, a koff of 0.00291 s⁻¹ and a kon of 279000 M⁻¹ s⁻¹.

B12 had a dissociation constant (Kd) of 49 nM, a koff of 0.0181 s⁻¹ and a kon of 370000 M⁻¹ s⁻¹.

The molecule B13 yielded a Kd of 23.2 nM, a koff of 0.00235 s⁻¹ and a kon of 101000 M⁻¹ s⁻¹.

The next assay has as its target IL-18R on HEK-Blue IL18R reporter cells (InvivoGen, #hkb-hmil18). Briefly: cell-based or functional assay.
Take B3: the “EC50 (pM), HEK-Blue IL18R reporter assay” value came out at 3.73 pM and the “Potency loss Mutant/NWT, HEK-Blue IL18R reporter assay” value (shortened to “Potency loss Mutant/NWT”) stood at 1.11 fold.

Turning to B7, the “EC50 (pM), HEK-Blue IL18R reporter assay” value was found to be 1.85 pM and the “Potency loss Mutant/NWT” value was found to be 0.56 fold.

With B9, the “EC50 (pM), HEK-Blue IL18R reporter assay” value was 0.86 pM and the “Potency loss Mutant/NWT” value was 0.26 fold.

Regarding B11, the “EC50 (pM), HEK-Blue IL18R reporter assay” value stood at 1.77 pM and the “Potency loss Mutant/NWT” value amounted to 0.53 fold.

As for B12, the “EC50 (pM), HEK-Blue IL18R reporter assay” value came out at 0.79 pM and the “Potency loss Mutant/NWT” value was determined as 0.24 fold.

Regarding B13, the “EC50 (pM), HEK-Blue IL18R reporter assay” value was 9.12 pM and the “Potency loss Mutant/NWT” value worked out at 2.74 fold.

Values taken from patent publication US20220056091A1 (BRIGHT PEAK THERAPEUTICS, published 2022).
